The values below come from patent US20060251658A1 (Sanofi, published 2006).

The assay concerns the target Recombinant human TGFβ1 (human, UniProt P01137 279-390). Description: cell-based or functional assay.

Chain of Recombinant human TGFβ1 (P01137 279-390 limits assumed): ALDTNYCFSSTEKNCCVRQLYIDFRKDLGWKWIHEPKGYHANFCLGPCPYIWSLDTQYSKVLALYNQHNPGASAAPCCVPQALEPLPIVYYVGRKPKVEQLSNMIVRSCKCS

B1: PET1074B9 germlined IgG4 (antibody, V domains shown)
VH: QVQLVQSGAEVKKPGSSVKVSCKASGYTFSSNVISWVRQAPGQGLEWMGGVIPIVDIANYAQRFKGRVTITADESTSTTYMELSSLRSEDTAVYYCALPRAFVLDAMDYWGQGTLVTVSS
VL: ETVLTQSPGTLSLSPGERATLSCRASQSLGSSYLAWYQQKPGQAPRLLIYGASSRAPGIPDRFSGSGSGTDFTLTISRLEPEDFAVYYCQQYADSPITFGQGTRLEIK
Regarding B1, the “Geometric Mean IC50, MLEC proliferation assay (n = 6; full dose response curve not obtained)” value is less than 1 nM.

B2: 1D11.16 murine pan-specific anti-TGFβ monoclonal antibody (antibody, from another filing, V domains shown)
VH: QVQLQQSGPELVRPGASVKLSCKASGYIFITYWMNWVKQRPGQGLEWIGQIFPASGSTNYNEMFEGKATLTVDTSSSTAYMQLSSLTSEDSAVYYCARGDGNYALDAMDYWGQGTSVTVSS
VL: DIVLTQSPASLAVSLGQRATISCRASESVDSYGNSFMHWYQQKSGQPPKLLIYLASNLESGVPARFSGSGSRTDFTLTIDPVEADDAATYYCQQNNEDPLTFGAGTKLEIK
On to B2, for which the % neutralisation at 91 pM antibody, MLEC proliferation assay stood at 12%.
